Laboratory results as given in PMC3078924.

Molecular target: recombinant ATP synthase subunit β of A. actinomycetemcomitans, as purified (Aggregatibacter actinomycetemcomitans ATCC 700685 (HK1651))
Experiment: native gel or EMSA; recombinant ATP synthase subunit β on native PAGE, silver stained; three prominent forms

stoichiometry N: 3
Substance: recombinant ATP synthase subunit β of A. actinomycetemcomitans, as purified (enzyme)
